The assay has as its target human VEGFC (Vascular endothelial growth factor C) (human) (UniProt P49767). Kind of assay: cell-based or functional assay.

B1: 1E9 antibodies (monoclonal anti-VEGFC antibodies of the 1E9 hybridoma) (antibody, V domains shown)
VH: QAQLRQPGAELVKPGASVKLSCKASGYTFISYWMHWVKQRPGQGLEWIGEINPSNGRTNYNEKFKSKATLTVDRSSSTAYMQLSSLTSEDSAVYYCASTSLFYYAMNYWGQGTSVTVSS
VL: DVVMTQTPLSLTVSLGDQASISCRSSQSLVHSNGNTYLHWYLQKPGQSPKLLIYKVFNRLSGVPDRFSGSGSGTDFTLKISRVEAEDLGVYFCSQNTHVPWTFGGGTKLEIK
For the molecule B1, the decrease in proliferation of cancer cells (MTT assay, A498, 786-O, MDA-MB231, 48 h) is 40%.

The values above are taken from patent US20230192833A1.
